The target of experiment [1] is CelB tetramer (Pyrococcus β-glucosidase CelB, isolated sample imaged by cryo-EM) (Pyrococcus furiosus) (UniProt Q51723). Description: cryo-EM structure.
The target of experiment [2] is bacteriophage P22 coat protein (Salmonella typhimurium bacteriophage P22) (UniProt P26747). Description: SEC-MALS. (SEC sorts molecules by how far they enter the pores of the column.)

Data on two substances can be found in publication PMC4861311.

What is called stoichiometry N is a count of units in the complex or per binding partner.

Chain of UniProt P26747 (P26747 whole entry): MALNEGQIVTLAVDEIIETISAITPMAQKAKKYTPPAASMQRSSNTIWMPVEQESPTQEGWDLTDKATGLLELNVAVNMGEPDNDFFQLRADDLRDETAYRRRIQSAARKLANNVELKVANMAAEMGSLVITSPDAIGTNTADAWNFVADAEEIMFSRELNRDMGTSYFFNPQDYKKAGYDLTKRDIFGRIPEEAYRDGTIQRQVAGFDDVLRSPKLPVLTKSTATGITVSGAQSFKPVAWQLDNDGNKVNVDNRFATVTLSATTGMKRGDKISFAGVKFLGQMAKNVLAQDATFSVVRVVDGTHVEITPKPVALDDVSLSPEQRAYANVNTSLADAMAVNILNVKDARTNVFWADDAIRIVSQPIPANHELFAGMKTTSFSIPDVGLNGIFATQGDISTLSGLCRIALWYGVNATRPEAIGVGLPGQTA

As to “CelB tetramer (Pyrococcus β-glucosidase CelB, isolated sample imaged by cryo-EM) (from UniProt Q51723 2-472) (enzyme)”, in experiment [1], the stoichiometry N stood at 4.

As to “EGFP fused to N-terminal-truncated P22 scaffold protein”, the #Cargo/capsid in experiment [2] was determined as 224 cargo/capsid.
